Experimental findings from CN113912710A (SURE BIOTECH HANGZHOU LTD, dated 2022) are described below.

Assay [1] concerns the target T1, MERS-CoV Nucleocapsid Protein(His Tag), 货号40068-V08B (MERS-CoV, UniProt K9N4V7 1-411).
T1 construct: also called MERS病毒的N蛋白; MERS-CoV-NP
The assay can be described thus: ELISA, cross-reaction test. A general note: An ELISA detects its analyte on a solid surface through an enzyme-linked reagent.

Assay [2] has as its target T2, SARS-CoV Nucleocapsid Protein(His Tag), 货号40143-V08B (SARS-CoV, UniProt P59595 1-422).
T2 construct: also called SARS病毒的N蛋白; SARS-CoV-NP
As to the kind of experiment: ELISA, cross-reaction test.

B1: 单克隆抗体Mouse anti-SARS-COV-2 Mab4(NP-Ab) (antibody, V domains shown)
VH: VKLQESGPELKKPGETVRISCKASGYTLTDYSIHWVKQAPGKGLKWMGWINTETVEPTYTDDFKGRFAFSLETSASTAYLQINNLKNEDTATYFCASTGTEFDYWGQGTTLTVSS
VL: DVVMTQTPLSLPVSLGDQASISCRSSQSLVHITGNTYLHWYLQKPGQSPKLLIYKVSNRFSGVPDRFSGSGSGTDFTLKISRVEAEDLGVYFCSQSTHVPLTFGAGTKLELK
notes: also called A1-1; A1-1号抗体
For B1, the binding result in assay [1] and in assay [2] was “no binding” in each case.
